Like-named read-outs stand apart in the source and are kept apart here.
Tests used:
TFPIα (Homo sapiens) = TFPIα (Homo sapiens) (UniProt P10646); assay: SPR; conditions: cited from earlier work
[1] = target: OG488-TFPIα-BR, TFPIα-BR modified with Oregon Green488 maleimide (human); assay: fluorescence polarisation; steady-state anisotropy; FV species (0–100 nM) titrated into 20 nM OG488-TFPIα-BR and 50 μM PCPS, assay buffer (20 mM HEPES, 0.15 M NaCl, 5 mM CaCl2, 0.1% PEG 8000, pH 7.4), 25 °C; fit to independent, noninteracting sites
[2] = target: activated factor V (FVa) (human) (UniProt P12259); assay: inhibition of prothrombinase (prothrombin activation assay); 0.1 nM cofactor species, 50 μM PCPS, 1.4 μM prothrombin, 3 μM DAPA, TFPIα 0–500 nM with a twofold excess of anti-K2 antibody to block FXa inhibition, started with 2 nM FXa, assay buffer, 25 °C; Ki from the equation for competitive inhibition
activated factor V (FVa) (human), sequence (P12259 29-737, chain 1 of 2): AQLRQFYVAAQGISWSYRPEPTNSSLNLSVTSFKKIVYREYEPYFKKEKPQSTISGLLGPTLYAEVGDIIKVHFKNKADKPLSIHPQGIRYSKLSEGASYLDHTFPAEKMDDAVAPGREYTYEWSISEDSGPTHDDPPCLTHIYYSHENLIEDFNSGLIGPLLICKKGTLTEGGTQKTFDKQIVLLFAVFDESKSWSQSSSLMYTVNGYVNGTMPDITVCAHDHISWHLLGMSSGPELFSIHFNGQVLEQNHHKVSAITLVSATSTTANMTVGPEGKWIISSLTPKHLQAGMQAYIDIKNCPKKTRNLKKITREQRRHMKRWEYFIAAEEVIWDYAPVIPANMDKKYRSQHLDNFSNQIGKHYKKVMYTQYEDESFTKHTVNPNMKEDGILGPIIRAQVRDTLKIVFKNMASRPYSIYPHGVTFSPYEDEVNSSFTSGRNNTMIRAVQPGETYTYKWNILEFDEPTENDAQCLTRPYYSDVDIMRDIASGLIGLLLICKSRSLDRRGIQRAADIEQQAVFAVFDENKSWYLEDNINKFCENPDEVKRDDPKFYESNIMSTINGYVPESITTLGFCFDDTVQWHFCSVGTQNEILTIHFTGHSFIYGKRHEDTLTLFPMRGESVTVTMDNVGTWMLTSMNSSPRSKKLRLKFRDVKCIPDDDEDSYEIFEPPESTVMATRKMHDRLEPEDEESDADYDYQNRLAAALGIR
activated factor V (FVa) (human), sequence (P12259 1574-2224, chain 2 of 2): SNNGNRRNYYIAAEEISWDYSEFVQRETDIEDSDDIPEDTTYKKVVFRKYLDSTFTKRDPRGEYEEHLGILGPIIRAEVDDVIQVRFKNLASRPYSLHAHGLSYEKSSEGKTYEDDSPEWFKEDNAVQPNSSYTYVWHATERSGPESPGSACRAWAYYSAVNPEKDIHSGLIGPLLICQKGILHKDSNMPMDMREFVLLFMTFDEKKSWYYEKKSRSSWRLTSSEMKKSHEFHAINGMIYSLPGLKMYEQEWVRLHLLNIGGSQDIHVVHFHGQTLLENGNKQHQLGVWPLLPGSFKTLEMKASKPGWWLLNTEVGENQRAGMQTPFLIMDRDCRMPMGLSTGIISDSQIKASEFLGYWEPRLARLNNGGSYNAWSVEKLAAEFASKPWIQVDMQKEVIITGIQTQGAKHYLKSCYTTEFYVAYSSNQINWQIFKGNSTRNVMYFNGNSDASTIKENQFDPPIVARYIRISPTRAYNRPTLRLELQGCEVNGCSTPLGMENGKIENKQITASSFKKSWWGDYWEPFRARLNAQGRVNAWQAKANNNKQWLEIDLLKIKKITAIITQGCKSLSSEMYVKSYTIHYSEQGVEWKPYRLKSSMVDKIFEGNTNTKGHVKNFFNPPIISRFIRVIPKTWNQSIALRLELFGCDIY

[3] = target: FV-short-QQ (FV-short with Arg709 and Arg1545 replaced with Gln) (human); assay: as above
[4] = target: FV-short (factor V isoform with B-domain residues 756 to 1458 deleted) (human); assay: as above
[5] = target: FV-short-QR∗ (FV-short-QR precleaved at Arg1545 with RVV-V) (human) (UniProt P12259); assay: as above
FV-short-QR∗ (FV-short-QR precleaved at Arg1545 with RVV-V) (human), sequence (P12259 other isoform, or with tags, fused parts or gaps, chain 1 of 2): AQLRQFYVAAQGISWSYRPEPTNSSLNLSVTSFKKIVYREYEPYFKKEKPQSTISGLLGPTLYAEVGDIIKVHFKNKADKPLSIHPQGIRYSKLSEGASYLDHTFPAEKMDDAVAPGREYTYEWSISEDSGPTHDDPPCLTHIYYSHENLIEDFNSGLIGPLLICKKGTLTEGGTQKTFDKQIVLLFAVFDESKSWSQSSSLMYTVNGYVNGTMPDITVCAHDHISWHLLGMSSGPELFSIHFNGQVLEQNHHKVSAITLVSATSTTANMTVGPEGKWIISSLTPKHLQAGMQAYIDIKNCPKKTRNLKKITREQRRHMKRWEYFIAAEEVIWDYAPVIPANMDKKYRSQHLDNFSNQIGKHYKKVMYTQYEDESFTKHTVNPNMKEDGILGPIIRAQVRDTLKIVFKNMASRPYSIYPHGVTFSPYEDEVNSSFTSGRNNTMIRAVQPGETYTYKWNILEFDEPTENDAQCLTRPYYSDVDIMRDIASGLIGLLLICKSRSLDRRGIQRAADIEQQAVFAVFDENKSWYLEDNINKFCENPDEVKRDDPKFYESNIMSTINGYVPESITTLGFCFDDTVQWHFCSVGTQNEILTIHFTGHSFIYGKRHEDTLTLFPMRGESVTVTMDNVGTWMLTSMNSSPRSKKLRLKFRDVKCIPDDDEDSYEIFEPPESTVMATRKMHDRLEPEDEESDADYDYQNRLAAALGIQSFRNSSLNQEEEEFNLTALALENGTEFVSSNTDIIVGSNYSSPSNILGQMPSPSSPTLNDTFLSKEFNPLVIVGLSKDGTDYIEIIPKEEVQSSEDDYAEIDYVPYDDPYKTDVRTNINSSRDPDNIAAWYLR
FV-short-QR∗ (FV-short-QR precleaved at Arg1545 with RVV-V) (human), sequence (P12259 1574-2224, chain 2 of 2): as the sequence (P12259 1574-2224, chain 2 of 2) above

[6] = target: FV-short-RQ∗ (FV-short-RQ precleaved at Arg709 with thrombin) (human) (UniProt P12259); assay: as above
FV-short-RQ∗ (FV-short-RQ precleaved at Arg709 with thrombin) (human), sequence (P12259 29-737, chain 1 of 2): as the sequence (P12259 29-737, chain 1 of 2) above
FV-short-RQ∗ (FV-short-RQ precleaved at Arg709 with thrombin) (human), sequence (P12259 other isoform, or with tags, fused parts or gaps, chain 2 of 2): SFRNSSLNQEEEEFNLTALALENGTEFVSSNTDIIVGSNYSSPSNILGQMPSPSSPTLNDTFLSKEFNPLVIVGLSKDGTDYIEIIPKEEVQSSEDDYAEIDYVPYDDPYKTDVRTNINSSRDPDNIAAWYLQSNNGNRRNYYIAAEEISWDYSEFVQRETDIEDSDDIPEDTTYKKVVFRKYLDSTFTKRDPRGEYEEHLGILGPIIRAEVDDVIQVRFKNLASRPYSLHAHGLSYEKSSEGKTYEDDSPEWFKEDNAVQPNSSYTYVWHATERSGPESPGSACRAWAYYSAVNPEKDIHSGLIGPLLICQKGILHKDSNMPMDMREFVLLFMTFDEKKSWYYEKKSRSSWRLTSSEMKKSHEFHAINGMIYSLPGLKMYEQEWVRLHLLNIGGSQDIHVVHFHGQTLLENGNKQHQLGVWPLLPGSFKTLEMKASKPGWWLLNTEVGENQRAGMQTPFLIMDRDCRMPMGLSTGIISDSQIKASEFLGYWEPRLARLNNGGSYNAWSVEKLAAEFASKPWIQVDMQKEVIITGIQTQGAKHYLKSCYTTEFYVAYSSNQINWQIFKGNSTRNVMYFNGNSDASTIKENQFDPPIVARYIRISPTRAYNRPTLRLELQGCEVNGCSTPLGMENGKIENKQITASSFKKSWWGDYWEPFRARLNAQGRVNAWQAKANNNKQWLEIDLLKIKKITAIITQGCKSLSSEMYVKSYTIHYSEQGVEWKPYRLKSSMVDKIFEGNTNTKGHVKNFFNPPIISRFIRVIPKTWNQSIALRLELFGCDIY

[7] = target: FV-short-QQ (FV-short with Arg709 and Arg1545 replaced with Gln) (human); assay: as above; remark: listed apart in the source
[8] = target: FV-short (factor V isoform with B-domain residues 756 to 1458 deleted) (human); assay: as above; remark: listed apart in the source
[9] = target: FV-short-RQ∗ (FV-short-RQ precleaved at Arg709 with thrombin) (human) (UniProt P12259); assay: as above; remark: listed apart in the source
[10] = target: FV-short-QQ (FV-short with Arg709 and Arg1545 replaced with Gln) (human); assay: fluorescence polarisation; competition: unlabeled TFPIα-BR (0–2 μM) or TFPIα (0–1 μM) titrated into 25 nM OG488-TFPIα-BR, 20 nM FV-short-QQ and 50 μM PCPS, assay buffer, 25 °C; stoichiometry of 1 assumed

factor V, sequence (P12259 1574-2224): as the sequence (P12259 1574-2224, chain 2 of 2) above
TFPIα (Homo sapiens), sequence (P10646 29-304): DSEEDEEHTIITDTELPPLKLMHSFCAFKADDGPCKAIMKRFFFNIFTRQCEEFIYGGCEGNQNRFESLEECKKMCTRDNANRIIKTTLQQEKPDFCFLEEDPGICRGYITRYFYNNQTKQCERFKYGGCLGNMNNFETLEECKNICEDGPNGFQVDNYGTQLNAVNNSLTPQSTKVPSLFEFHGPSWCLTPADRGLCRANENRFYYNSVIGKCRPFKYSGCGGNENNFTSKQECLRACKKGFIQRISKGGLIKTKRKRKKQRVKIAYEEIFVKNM

Substance: factor V (from UniProt P12259)
- Kd (TFPIα (Homo sapiens)): 13 nM

Substance: FV-short (factor V isoform with B-domain residues 756 to 1458 deleted) (natural protein)
- stoichiometry N [1]: 1.25

Substance: tissue factor pathway inhibitor alpha (TFPIα), full-length (from UniProt P10646-1 29-304) (natural protein)
- Ki [2]: > 500 nM
- Ki [3]: 0.11 nM
- Ki [4]: 0.23 nM
- Ki [5]: > 500 nM
- Ki [6]: 0.24 nM
- Ki [7]: 0.1 nM
- Ki [8]: 0.14 nM
- Ki [9]: 0.26 nM
- Kd [10]: 0.73 nM
